± gives the uncertainty stated by the source.
Test: amyloid nucleation score (Sup35N fusion, yeast selection) (log enrichment); library NNK2; higher = more nucleation; inactive = no reads after selection
Outline: (§1)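 Yeast lacking psi expressed peptides of 20 random codons fused to Sup35N, received 100 μM copper sulfate for 24 hours, and were then grown for 7 days at 30°C on medium lacking adenine and uracil. Illumina sequencing of input and output plasmid inserts provided the reads. Nucleation scores are DiMSum log enrichments of output over input, centred on the mode of non-aggregating sequences. Any sequence with under 100 input reads was excluded.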
In the case of YSELIVTVIYKSTSSVRISC, the amyloid nucleation score is reported as -0.285 ± 0.33.
YSFSRTYVLIIDGVS gave an amyloid nucleation score of 1.27 ± 0.18.
With YSGDNVNVVKQRPSCFLISR the amyloid nucleation score was -0.24 ± 0.74.
In the case of YSGFIMWYLFDDTAQIP, the amyloid nucleation score is reported as -0.781 ± 1.1.
Substance YSGVSTTSFISDKPYRSRRR has an amyloid nucleation score of -1.95 ± 1.
With YSIVNTNAGMTTRAWVTPTW the amyloid nucleation score was 1.38 ± 0.21.
YSKTFTRRSWAHYTCHSVRL gave an amyloid nucleation score of 0.12 ± 0.41.
Substance YSLLILAPDFLNRHSSLGCI has an amyloid nucleation score of -0.226 ± 1.1.
In the case of YSMLQF, the amyloid nucleation score is reported as “inactive”.
Work on YSQFITGFGNNRHLTLSLAG yielded an amyloid nucleation score of 0.389 ± 0.5.
In the case of YSRGGKMVAARGCGSAEPDA, the amyloid nucleation score is reported as -0.64 ± 0.76.
YSRKYSSAKVSMGDVCHNYM gave an amyloid nucleation score of -1.19 ± 0.76.
With YSSDYILSFNVNNTMVVSFE the amyloid nucleation score was 5.59 ± 0.078.
YSSKFSYGMMCTRWDIVQYK showed an amyloid nucleation score of -0.451 ± 0.76.
With YSVQRCGYQDSKNNDVFLA the amyloid nucleation score was -0.043 ± 0.5.
For YTDIHESL, the amyloid nucleation score was “inactive”.
With YTFWNVLC the amyloid nucleation score was 3.59 ± 0.084.
Substance YTGRSDVNSVLRV has an amyloid nucleation score of 0.183 ± 1.
With YTGYGTWNLNIRNACNRVSW the amyloid nucleation score was “inactive”.
In the case of YTKFANSHFIGLNRSCWSNE, the amyloid nucleation score is reported as -0.238 ± 0.8.
For YTLCTMKLREWNRTSTWPSL, the amyloid nucleation score was -0.003 ± 0.39.
In the case of YTSSCILGRTFPVLKCNIDY, the amyloid nucleation score is reported as -1.33 ± 0.76.
With YTSWDMYIEFIMSLQMYSVG the amyloid nucleation score was -0.729 ± 1.1.
For YTWSSYD, the amyloid nucleation score was -1.14 ± 0.36.
In the case of YTWVYPF, the amyloid nucleation score is reported as -1.01 ± 0.33.
YVAVYSCLSRGCTLS gave an amyloid nucleation score of 9.186 ± 0.077.
Substance YVDAEARLFCGLLGLVFGDL has an amyloid nucleation score of 5.47 ± 0.097.
In the case of YVGSTLAFNNKIGGDYNMKS, the amyloid nucleation score is reported as -0.54 ± 1.1.
With YVIVVGWPR the amyloid nucleation score was 9.408 ± 0.073.
YVLKIGSY showed an amyloid nucleation score of -0.617 ± 0.44.
YVLSCDPLVRYQGLEDRQQS gave an amyloid nucleation score of 0.31 ± 0.62.
Substance YVMFRC has an amyloid nucleation score of 1.31 ± 0.32.
In the case of YVMNRCNR, the amyloid nucleation score is reported as -0.019 ± 0.54.
Work on YVMREDLGPGSQADPTSGRS yielded an amyloid nucleation score of 0.912 ± 0.27.
In the case of YVMSVRSAIRPIGSCVKKEY, the amyloid nucleation score is reported as 0.101 ± 0.76.
YVNRVSCKVASRNCHHNGKS gave an amyloid nucleation score of -0.235 ± 1.1.
In the case of YVPDVLTMYYGHTFTFDCGR, the amyloid nucleation score is reported as “inactive”.
Work on YVPYLLTLCCRCSSLGFR yielded an amyloid nucleation score of -1.08 ± 1.1.
In the case of YVRFEVLRWLLYRYTMVSQD, the amyloid nucleation score is reported as 0.661 ± 0.49.
For YVSSNWRNFRSVSQWWMLHV, the amyloid nucleation score was 1.57 ± 0.1.
For YVTELIDCPGWTRRM, the amyloid nucleation score was -0.006 ± 0.38.
Substance YVTPSNLARNKIQRFMASLI has an amyloid nucleation score of 0.436 ± 0.8.
In the case of YVVKIREIMVCSLVLDLRQR, the amyloid nucleation score is reported as 2.57 ± 0.069.
With YVVTYLRRRTLLAGSCISNY the amyloid nucleation score was 0.164 ± 0.8.
With YVYKCLQSQFFNALVTMISL the amyloid nucleation score was “inactive”.
Work on YWCLA yielded an amyloid nucleation score of -0.737 ± 0.45.
With YWELQSHMGRFNSSCHLRWV the amyloid nucleation score was -1.7 ± 0.76.
YWFHDCMRCCGNKILLLPDI showed an amyloid nucleation score of -0.712 ± 1.1.
With YWGNYLRSFIYVVTSWSHVF the amyloid nucleation score was “inactive”.
For YWLPRCKLVFV, the amyloid nucleation score was 0.017 ± 0.25.
Substance YWNEP has an amyloid nucleation score of 0.15 ± 0.37.
YWQYCVDANFKQLMQRGKVF showed an amyloid nucleation score of 0.728 ± 0.62.
For YWVSCHVALGMALKSVLVPC, the amyloid nucleation score was 0.009 ± 0.76.
Substance YWWGLENFTYCEDDAVSHKS has an amyloid nucleation score of 0.294 ± 0.8.
For YYCRCYSGVLVTRAYQGNPE, the amyloid nucleation score was -0.168 ± 1.1.
Work on YYEYQVIYSVCSMRI yielded an amyloid nucleation score of -0.31 ± 1.
In the case of YYGILEVG, the amyloid nucleation score is reported as “inactive”.
In the case of YYGVKSAM, the amyloid nucleation score is reported as 0.074 ± 0.49.
With YYISKKSMMMDEVRCWMTWF the amyloid nucleation score was -0.524 ± 0.27.
With YYLSNSWVLYFCFGIFVTSQ the amyloid nucleation score was 1.88 ± 0.094.
For YYNKNLFCLFSVLEYKTTFL, the amyloid nucleation score was 4.09 ± 0.056.
In the case of YYQGRPWSSVLSFYCFHSYS, the amyloid nucleation score is reported as “inactive”.
With YYRIWYRVLIPSP the amyloid nucleation score was -0.43 ± 0.29.
YYSAHAKSAGLM gave an amyloid nucleation score of 1.2 ± 0.48.
With YYTWDFWDIFRGWYRRDGIC the amyloid nucleation score was “inactive”.
YYYDYVCLLWDLEEVSRHAL showed an amyloid nucleation score of -0.442 ± 1.

Test: amyloid nucleation score (Sup35N fusion, yeast selection) (log enrichment); library NNK1; higher = more nucleation; inactive = no reads after selection
Outline: as §1
Work on AAPLNMCLANTGFAQFLTSI yielded an amyloid nucleation score of -0.618 ± 1.2.
AAVLGFCSWNLRRRIMEF gave an amyloid nucleation score of -0.864 ± 1.4.
In the case of ACCYVDLKIKFNVLPAVNIK, the amyloid nucleation score is reported as “inactive”.
ACDLNIIWADNSDYLIYVIS showed an amyloid nucleation score of 0.341 ± 0.36.
With ACFPLQVKDCYKCLGHLRAV the amyloid nucleation score was 0.315 ± 0.29.
ACRGPNSHRFTGILHIFFLE gave an amyloid nucleation score of 0.705 ± 0.67.
For ACSGISILTCIIYRRQYISS, the amyloid nucleation score was -1 ± 0.91.
In the case of ADLLVVGVPSFNFWSSKVFV, the amyloid nucleation score is reported as “inactive”.
With ADRRLW the amyloid nucleation score was -0.04 ± 0.32.
For AFDWSMSAKDQINEQTLNSV, the amyloid nucleation score was 0.617 ± 0.28.
Work on AFGLMNCDRLSLTSNINTGG yielded an amyloid nucleation score of -0.4 ± 0.41.
In the case of AFKWTSCYIFPLNWRKLFN, the amyloid nucleation score is reported as -0.336 ± 0.34.
Work on AFSLR yielded an amyloid nucleation score of -0.437 ± 0.57.
AFVVYMNFFHCLESNIVEWH gave an amyloid nucleation score of 5.61 ± 0.073.
For AFYIRIGVHFPQ, the amyloid nucleation score was -0.525 ± 1.1.
AFYNCYSGNYFNYIFIYRCT gave an amyloid nucleation score of 7.283 ± 0.053.
With AGAVCWACDR the amyloid nucleation score was -1.4 ± 0.77.
For AGAWIVDVTGKSMERYVGNK, the amyloid nucleation score was 0.133 ± 0.61.

From the supplement of paper PMC12042874
